Test results reported in PMC10778422, “PI3Kδ Inhibition Potentiates Glucocorticoids in B-lymphoblastic Leukemia by Decreasing Receptor Phosphorylation and Enhancing Gene Regulation”.

Biological target: GR-AF1-DBD unmodified (Homo sapiens, UniProt P04150 27-506)
Test: EMSA; reference; Kd plotted in figure only; 5 mM Mg2+; EMSA: 20 mM Tris-HCl pH 8.0, 150 mM KCl, 10% glycerol, 5 mM MgCl2, 1 mM DTT, 1 mM EDTA, 200 ng/uL BSA, 40 ng/uL salmon sperm DNA; dsDNA diluted to 10 nM in this buffer; Hill fit; temperature not given
Conditions: protein: recombinant; tags: His6 (pET28a); chain copies: 2; label: Cy5; blunt

Chain of GR-AF1-DBD unmodified (P04150 27-506): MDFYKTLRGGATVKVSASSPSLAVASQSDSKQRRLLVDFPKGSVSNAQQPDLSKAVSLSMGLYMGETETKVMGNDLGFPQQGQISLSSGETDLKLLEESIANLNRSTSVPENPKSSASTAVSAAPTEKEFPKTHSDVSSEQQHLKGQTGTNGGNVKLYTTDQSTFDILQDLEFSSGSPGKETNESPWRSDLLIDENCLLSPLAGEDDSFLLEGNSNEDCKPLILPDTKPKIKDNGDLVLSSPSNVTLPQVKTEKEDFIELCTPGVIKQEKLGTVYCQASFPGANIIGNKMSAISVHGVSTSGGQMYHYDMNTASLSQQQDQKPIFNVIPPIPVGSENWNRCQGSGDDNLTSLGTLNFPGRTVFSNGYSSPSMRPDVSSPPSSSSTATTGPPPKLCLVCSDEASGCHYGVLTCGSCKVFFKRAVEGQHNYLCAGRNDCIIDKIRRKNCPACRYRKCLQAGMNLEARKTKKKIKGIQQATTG

B1: consensus GR site (dsDNA)
DNA 1: GTACGGAACATCGTGTACTGTAC
DNA 2: GTACAGTACACGATGTTCCGTAC
Question: Does B1 bind?
Answer: binds
